According to the supplement of paper PMC5998384:

What was measured:
HeLa Kyoto [1] = test: solubility in G1/S (NP-40 vs SDS abundance) (log2 ratio); higher = more soluble; conditions: cell cycle stage: G1/S
HeLa Kyoto [2] = test: solubility change mitosis vs G1/S (difference of NP-40 vs SDS log2 ratios) (log2 ratio difference); higher = more soluble in mitosis
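For solubility change mitosis vs G1/S (difference of NP-40 vs SDS log2 ratios) in this document: synchronized HeLa Kyoto cells (double thymidine block for G1/S, nocodazole release for mitosis), protein amounts in NP-40 versus SDS lysates quantified by mass spectrometry, three biological replicates.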
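For solubility in G1/S (NP-40 vs SDS abundance) in this document: HeLa Kyoto cells arrested at G1/S by double thymidine block, proteins quantified by TMT10plex mass spectrometry in mild NP-40 versus SDS extracts, three biological replicates.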

Row | Sequence | solubility in G1/S (log2) (HeLa Kyoto [1]) | solubility change mitosis (log2) (HeLa Kyoto [2])
1 | MSDIVEKTLTALPGLFLQNQPGGGPAAAKASFSSRLGSLVRGITALTSKHEEEKLIQQELSSLKATVSAPTTTLKMMKECMVRLIYCEMLGYDASFGYIHAIKLAQQGNLLEKRVGYLAVSLFLHESHELLLLLVNTVVKDLQSTNLVEVCMALTVVSQIFPCEMIPAVLPLIEDKLQHSKEIVRRKAVLALYKFHLIAPNQVQHIHIKFRKALCDRDVGVMAASLHIYLRMIKENSSGYKDLTGSFVTILKQVVGGKLPVEFNYHSVPAPWLQIQLLRILGLLGKDDQRTSELMYDVLDESLRRAELNHNVTYAILFECVHTVYSIYPKSELLEKAAKCIGKFVLSPKINLKYLGLKALTYVIQQDPTLALQHQMTIIECLDHPDPIIKRETLELLYRITNAQNITVIVQKMLEYLHQSKEEYVIVNLVGKIAELAEKYAPDNAWFIQTMNAVFSVGGDVMHPDIPNNFLRLLAEGFDDETEDQQLRLYAVQSYLTLLDMENVFYPQRFLQVMSWVLGEYSYLLDKETPEEVIAKLYKLLMNDSVSSETKAWLIAAVTKLTSQAHSSNTVERLIHEFTISLDTCMRQHAFELKHLHENVELMKSLLPVDRSCEDLVVDASLSFLDGFVAEGLSQGAAPYKPPHQRQEEKLSQEKVLNFEPYGLSFSSSGFTGRQSPAGISLGSDVSGNSAETGLKETNSLKLEGIKKLWGKEGYLPKKESKTGDESGALPVPQESIMENVDQAITKKDQSQVLTQSKEEKEKQLLASSLFVGLGSESTINLLGKADTVSHKFRRKSKVKEAKSGETTSTHNMTCSSFSSLSNVAYEDDYYSNTLHDTGDKELKKFSLTSELLDSESLTELPLVEKFSYCSLSTPSLFANNNMEIFHPPQSTAASVAKESSLASSFLEETTEYIHSNAMEVCNNETISVSSYKIWKDDCLLMVWSVTNKSGLELKSADLEIFPAENFKVTEQPGCCLPVMEAESTKSFQYSVQIEKPFTEGNLTGFISYHMMDTHSAQLEFSVNLSLLDFIRPLKISSDDFGKLWLSFANDVKQNVKMSESQAALPSALKTLQQKLRLHIIEIIGNEGLLACQLLPSIPCLLHCRVHADVLALWFRSSCSTLPDYLLYQCQKVMEGS [AP4E1] | -0.402 | -0.0567
2 | MSEESDSLRTSPSVASLSENELPPPPEPPGYVCSLTEDLVTKAREELQEKPEWRLRDVQALRDMVRKEYPNLSTSLDDAFLLRFLRARKFDYDRALQLLVNYHSCRRSWPEVFNNLKPSALKDVLASGFLTVLPHTDPRGCHVVCIRPDRWIPSNYPITENIRAIYLTLEKLIQSEETQVNGIVILADYKGVSLSKASHFGPFIAKKVIGILQDGFPIRIKAVHVVNEPRIFKGIFAIIKPFLKEKIANRFFLHGSDLNSLHTNLPRSILPKEYGGTAGELDTATWNAVLLASEDDFVKEFCQPVPACDSILGQTLLPEGLTSDAQCDDSLRAVKSQLYSCY [TTPAL] | 0.206 | -0.0202
3 | MSFAESGWRSALRRRGPGTPGPVARPSYSSFTQGDSWGEGEVDEEEGCDQVARDLRAEFSAGAWSEPRKRSVLPPDGNGSPVLPDKRNGIFPAAAGSRAQPRRWPVQVLSILCSLLFAILLAFLLAIAYLIVKELHAENLKNEDDVDTGLLGFWTLLIISLTAGFSCCSFSWTVTYFDSFEPGMFPPTPLSPARFKKLTGHSFHMGYSMAILNGIVAALTVAWCLM [ARL6IP6] | -0.241 | 0.698
4 | MSGEPELIELRELAPAGRAGKGRTRLERANALRIARGTACNPTRQLVPGRGHRFQPAGPATHTWCDLCGDFIWGVVRKGLQCARLSADCKFTCHYRCRALVCLDCCGPRDLGWEPAVERDTNVDEPVEWETPDLSQAEIEQKIKEYNAQINSNLFMSLNKDGSYTGFIKVQLKLVRPVSVPSSKKPPSLQDARRGPGRGTSVRRRTSFYLPKDAVKHLHVLSRTRAREVIEALLRKFLVVDDPRKFALFERAERHGQVYLRKLLDDEQPLRLRLLAGPSDKALSFVLKENDSGEVNWDAFSMPELHNFLRILQREEEEHLRQILQKYSYCRQKIQEALHACPLG [RASSF1] | 0.0141 | 0.0429
5 | MSGGEVVCSGWLRKSPPEKKLKRYAWKRRWFVLRSGRLTGDPDVLEYYKNDHAKKPIRIIDLNLCQQVDAGLTFNKKEFENSYIFDINTIDRIFYLVADSEEEMNKWVRCICDICGFNPTEEDPVKPPGSSLQAPADLPLAINTAPPSTQADSSSATLPPPYQLINVPPHLETLGIQEDPQDYLLLINCQSKKPEPTRTHADSAKSTSSETDCNDNVPSHKNPASSQSKHGMNGFFQQQMIYDSPPSRAPSASVDSSLYNLPRSYSHDVLPKVSPSSTEADGELYVFNTPSGTSSVETQMRHVSISYDIPPTPGNTYQIPRTFPEGTLGQTSKLDTIPDIPPPRPPKPHPAHDRSPVETCSIPRTASDTDSSYCIPTAGMSPSRSNTISTVDLNKLRKDASSQDCYDIPRAFPSDRSSSLEGFHNHFKVKNVLTVGSVSSEELDENYVPMNPNSPPRQHSSSFTEPIQEANYVPMTPGTFDFSSFGMQVPPPAHMGFRSSPKTPPRRPVPVADCEPPPVDRNLKPDRKVKPAPLEIKPLPEWEELQAPVRSPITRSFARDSSRFPMSPRPDSVHSTTSSSDSHDSEENYVPMNPNLSSEDPNLFGSNSLDGGSSPMIKPKGDKQVEYLDLDLDSGKSTPPRKQKSSGSGSSVADERVDYVVVDQQKTLALKSTREAWTDGRQSTESETPAKSVK [GAB1] | 0.368 | -0.296
6 | MSGGLAPSKSTVYVSNLPFSLTNNDLYRIFSKYGKVVKVTIMKDKDTRKSKGVAFILFLDKDSAQNCTRAINNKQLFGRVIKASIAIDNGRAAEFIRRRNYFDKSKCYECGESGHLSYACPKNMLGEREPPKKKEKKKKKKAPEPEEEIEEVEESEDEGEDPALDSLSQAIAFQQAKIEEEQKKWKPSSGVPSTSDDSRRPRIKKSTYFSDEEELSD [ZCRB1] | 0.0915 | 0.122
7 | MSGSCAAPGPGSGSSPAACRFAHYFVLCGIDADSGLEPDELAGENFDQSPLRRTFKSKVLAHYPQNIEWNPFDQDAVNMLCMPKGLSFRTQTDNKDPQFHSFIITREDGSRTYGFVLTFYEEVTSKQICTAMQTLYQMHNAEHYSSVYASSSCSMDSLASSLDEGDTTSLLKLQRYNSYDISRDTLYVSKSICLITPLPFMQACKKFLIQLYKAVTSQQPPPLPLESYIHNILYEVPLPPPGRSLKFYGVYEPVICQRPGPSELPLSDYPLREAFELLGLENLVQVFTCVLLEMQILLYSQDYQRLMTVAEGITTLLFPFQWQHVYVPILPASLLHFLDAPVPYLMGLQSKEGTDRSKLELPQEANLCFVDIDNHFIELPEEFPQFPNKVDFIQELSEVLVQFGIPPEGSLHCSESTSKLKNMVLKDLVNDKKNGNVCTNNISMYELLKGNETIARLQALAKRTGVAVEKMDLSASLGEKDKDLKLHCEEAELRDYQLNVQLREVFANRFTQMFADYEAFVIQTAQDMESWLTNREQMQNFDKASFLSDQPEPYLPFLSRFIETQMFATFIDNKIMSQWEEKDPLLRVFDTRIDKIRLYNVRAPTLRTSIYQKCSTLKEAAQSIEQRLMKMDHTAIHPHLLDMKIGQGKYEQGFFPKLQSDVLATGPTSNNRWVSRSATAQRRKERLRQHSEHVGLDNDLREKYMQEARSLGKNLRQPKLSDLSPAVIAQTNCKFVEGLLKECRMKTKRMLVEKMGHEAVELGHGEANITGLEENTLIASLCDLLERIWSHGLQVKQGKSALWSHLIQFQDREEKQEHLAESPVALGPERRKSDSGVMLPTLRVSLIQDMRHIQNMSEIKTDVGRARAWIRLSLEKKLLSQHLKQLLSNQPLTKKLYKRYAFLRCEEEREQFLYHLLSLNAVDYFCFTSVFTTIMIPYRSVIIPIKKLSNAIITSNPWICVSGELGDTGVMQIPKNLLEMTFECQNLGKLTTVQIGHDNSGLLAKWLVDCVMVRNEITGHTYRFPCGRWLGKGIDDGSLERILIGELMTSASDEDLVKQCRTPPQQKSPTTARRLSITSLTGKNNKPNAGQIQEGIGEAVNNIVKHFHKPEKERGSLTVLLCGENGLVAALEQVFHHGFKSARIFHKNVFIWDFIEKVVAYFETTDQILDNEDDVLIQKSSCKTFCHYVNAINTAPRNIGKDGKFQILVCLGTRDRLLPQWIPLLAECPAITRMYEESALLRDRMTVNSLIRILQTIQDFTIVLEGSLIKGVDV [DENND5B] | -0.149 | -0.179
8 | MSGSHTPACGPFSALTPSIWPQEILAKYTQKEESAEQPEFYYDEFGFRVYKEEGDEPGSSLLANSPLMEDAPQRLRWQAHLEFTHNHDVGDLTWDKIAVSLPRSEKLRSLVLAGIPHGMRPQLWMRLSGALQKKRNSELSYREIVKNSSNDETIAAKQIEKDLLRTMPSNACFASMGSIGVPRLRRVLRALAWLYPEIGYCQGTGMVAACLLLFLEEEDAFWMMSAIIEDLLPASYFSTTLLGVQTDQRVLRHLIVQYLPRLDKLLQEHDIELSLITLHWFLTAFASVVDIKLLLRIWDLFFYEGSRVLFQLTLGMLHLKEEELIQSENSASIFNTLSDIPSQMEDAELLLGVAMRLAGSLTDVAVETQRRKHLAYLIADQGQLLGAGTLTNLSQVVRRRTQRRKSTITALLFGEDDLEALKAKNIKQTELVADLREAILRVARHFQCTDPKNCSVELTPDYSMESHQRDHENYVACSRSHRRRAKALLDFERHDDDELGFRKNDIITIVSQKDEHCWVGELNGLRGWFPAKFVEVLDERSKEYSIAGDDSVTEGVTDLVRGTLCPALKALFEHGLKKPSLLGGACHPWLFIEEAAGREVERDFASVYSRLVLCKTFRLDEDGKVLTPEELLYRAVQSVNVTHDAVHAQMDVKLRSLICVGLNEQVLHLWLEVLCSSLPTVEKWYQPWSFLRSPGWVQIKCELRVLCCFAFSLSQDWELPAKREAQQPLKEGVRDMLVKHHLFSWDVDG [SGSM3] | -0.177 | 0.011
9 | MSKQQPTQFINPETPGYVGFANLPNQVHRKSVKKGFEFTLMVVGESGLGKSTLINSLFLTDLYPERVIPGAAEKIERTVQIEASTVEIEERGVKLRLTVVDTPGYGDAINCRDCFKTIISYIDEQFERYLHDESGLNRRHIIDNRVHCCFYFISPFGHGLKPLDVAFMKAIHNKVNIVPVIAKADTLTLKERERLKKRILDEIEEHNIKIYHLPDAESDEDEDFKEQTRLLKASIPFSVVGSNQLIEAKGKKVRGRLYPWGVVEVENPEHNDFLKLRTMLITHMQDLQEVTQDLHYENFRSERLKRGGRKVENEDMNKDQILLEKEAELRRMQEMIARMQAQMQMQMQGGDGDGGALGHHV [SEPT2] | 0.276 | -0.0125
